Measured values reported in publication PMC7242444, “Characterization of the zinc finger proteins ZMYM2 and ZMYM4 as novel B-MYB binding proteins” (Scientific Reports, 2020).

Target: T1, GFP-B-MYB (human, UniProt P10244 1-700)
T1 construct: B-MYB, human, full length, fused to eGFP; The truncated derivatives were cloned in peGFP-C1, 2 or 3, which would put GFP at the N-terminus; also called GFP/B-MYB fusion protein; peGFP-B-MYB; source: HEK293T, stably expressing (lentiviral) or transfected, in lysate
T1 sequence (looked up): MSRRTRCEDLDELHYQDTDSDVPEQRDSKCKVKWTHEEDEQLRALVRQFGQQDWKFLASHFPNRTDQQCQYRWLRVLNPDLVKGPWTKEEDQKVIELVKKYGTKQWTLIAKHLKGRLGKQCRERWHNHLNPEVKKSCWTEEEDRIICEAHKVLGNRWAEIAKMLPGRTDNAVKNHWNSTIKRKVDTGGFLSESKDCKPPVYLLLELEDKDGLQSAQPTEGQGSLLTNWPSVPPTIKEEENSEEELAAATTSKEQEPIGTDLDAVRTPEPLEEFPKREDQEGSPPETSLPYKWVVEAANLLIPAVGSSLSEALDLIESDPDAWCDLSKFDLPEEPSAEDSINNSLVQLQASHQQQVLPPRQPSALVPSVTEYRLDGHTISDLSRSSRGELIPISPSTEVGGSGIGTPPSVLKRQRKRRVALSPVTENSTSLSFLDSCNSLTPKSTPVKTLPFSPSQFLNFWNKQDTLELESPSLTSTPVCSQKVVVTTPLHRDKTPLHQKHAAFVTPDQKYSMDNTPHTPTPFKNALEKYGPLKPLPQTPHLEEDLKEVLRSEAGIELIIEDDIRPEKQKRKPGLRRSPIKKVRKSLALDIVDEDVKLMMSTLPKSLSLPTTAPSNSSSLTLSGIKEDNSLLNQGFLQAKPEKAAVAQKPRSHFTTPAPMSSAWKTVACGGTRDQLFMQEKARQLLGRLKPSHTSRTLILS
Experiment: co-IP; GFP-trap beads, 3 h at 4 °C, extracts of HEK293T cells in ELB buffer (50 mM Tris/HCl pH 7.5, 120 mM NaCl, 0.2% NP-40) expressing the GFP fusion bait; Western blot of bound proteins; in Fig. 3 cells pre-incubated with 10 μM BrdU and irradiated or not with UV-C
Details: partners not purified

B1: zinc finger MYM-type protein 4 (ZMYM4), endogenous (natural protein, human (endogenous in HEK293T), UniProt Q5VZL5 1-1548, looked up)
chain: MAEREVESGPRKRFEQKSGAVFDEIVENCGGIMDTEMSEDIDHNLTPTLDSMSYGMPNQTGSENSLLDEDDYFLNSGDLAGIPVVGSDNEDEQDFSSKDNLVSSIHTDDSLEVERRVTQHESDNENEIQIQNKLKKDFPKQFDQVSVFKSIRKDFSLVRENSKETFSGKEKNRDLTYEREKRLDKPHKDLDSRLKSSFFDKAANQVEETLHTHLPQTPETNFRDSSYPFANKESIGSELGNSFASNIRIKEEPLDDEYDKAMAPQQGLLDKIKDEPDNAQEYSHGQQQKTQEGELKISAVFSVSGSPLAPQLTTGFQPSLASSGMNKMLPSVPATAVRVSCSGCKKILQKGQTAYQRKGSTQLFCSTLCLTGYTVPPARPPPPLTKKTCSSCSKDILNPKDVISAQFENTTTSKDFCSQSCLSTYELKKKPIVTINTNSISTKCSMCQKNAVIRHEVNYQNVVHKLCSDACFSKFRSANNLTMNCCENCGGYCYSGSGQCHMLQIEGQSKKFCSSSCITAYKQKSAKITPCALCKSLRSSAEMIENTNSLGKTELFCSVNCLSAYRVKMVTSAGVQVQCNSCKTSAIPQYHLAMSDGSIRNFCSYSCVVAFQNLFNKPTGMNSSVVPLSQGQVIVSIPTGSTVSAGGGSTSAVSPTSISSSAAAGLQRLAAQSQHVGFARSVVKLKCQHCNRLFATKPELLDYKGKMFQFCGKNCSDEYKKINNVMAMCEYCKIEKIVKETVRFSGADKSFCSEGCKLLYKHDLAKRWGNHCKMCSYCLQTSPKLVQNNLGGKVEEFCCEECMSKYTVLFYQMAKCDACKRQGKLSESLKWRGEMKHFCNLLCILMFCNQQSVCDPPSQNNAANISMVQAASAGPPSLRKDSTPVIANVVSLASAPAAQPTVNSNSVLQGAVPTVTAKIIGDASTQTDALKLPPSQPPRLLKNKALLCKPITQTKATSCKPHTQNKECQTEDTPSQPQIIVVPVPVPVFVPIPLHLYTQYAPVPFGIPVPMPVPMLIPSSMDSEDKVTESIEDIKEKLPTHPFEADLLEMAEMIAEDEEKKTLSQGESQTSEHELFLDTKIFEKDQGSTYSGDLESEAVSTPHSWEEELNHYALKSNAVQEADSELKQFSKGETEQDLEADFPSDSFDPLNKGQGIQARSRTRRRHRDGFPQPRRRGRKKSIVAVEPRSLIQGAFQGCSVSGMTLKYMYGVNAWKNWVQWKNAKEEQGDLKCGGVEQASSSPRSDPLGSTQDHALSQESSEPGCRVRSIKLKEDILSCTFAELSLGLCQFIQEVRRPNGEKYDPDSILYLCLGIQQYLFENGRIDNIFTEPYSRFMIELTKLLKIWEPTILPNGYMFSRIEEEHLWECKQLGAYSPIVLLNTLLFFNTKYFQLKNVTEHLKLSFAHVMRRTRTLKYSTKMTYLRFFPPLQKQESEPDKLTVGKRKRNEDDEVPVGVEMAENTDNPLRCPVRLYEFYLSKCSESVKQRNDVFYLQPERSCVPNSPMWYSTFPIDPGTLDTMLTRILMVREVHEELAKAKSEDSDVELSD
notes: ZMYM4 (zinc finger MYM-type protein 4), endogenous in HEK293T cells; In extracts made without NEM the protein is de-SUMOylated; also called endogenous ZMYM4; source: endogenous, HEK293T lysate
In the case of B1, the “fold increase of binding after UV irradiation (against non-irradiated cells, densitometry)” value is reported as 4.1 fold.
